In PMC9792355 one finds response (NLR normalized to HCK-N1), response (normalized NLR) and ratio to parent data, which are given here for 23 substances.

Holding throughout (assay): luciferase complementation assay
In assay [1] the target is DomDIM1 SKAP1 mutant (DIM domain of SKAP1). The note with it: HEK293T cells; read off a plot.
The target in assay [2] is N2-SKAP2 (SRC kinase adaptor phosphoprotein 2, wildtype) (UniProt O75563). The note with it: HEK293T cells, read off a plot.
Assay [3] addresses N2-SKAP2 DomDIM2 deletion mutant (DIM domain alone). Conditions: HEK293T cells; read off a plot.
Assay [4] addresses C1-fused SRC kinases (mean among the nine SRC kinases). The note with it: HEK293T cells.
Assay [5] deals with N1-fused SRC kinases (mean among the nine SRC kinases). The note with it: HEK293T cells.

For the substance “C1-fused HCK (hematopoietic cell kinase), wildtype (from UniProt P08631-2) I309A; T311A”, the response (NLR normalized to HCK-N1) stood at 0.07 in assay [1], 0.1 in assay [2] and 0.29 in assay [3]. The response (normalized NLR) in assay [2] (parent: est. 85) stood at 16.

As for “C1-fused HCK (hematopoietic cell kinase), wildtype (from UniProt P08631-2) R150A”, the figures for the response (NLR normalized to HCK-N1) in assay [1] and in assay [3] were 2.9 and 8.4, respectively.

“C1-fused HCK (hematopoietic cell kinase), wildtype (from UniProt P08631-2) Y30F”: the response (NLR normalized to HCK-N1) amounted to 0.055 in assay [1] and 0.13 in assay [3].

Take “C1-fused HCK (hematopoietic cell kinase), wildtype (from UniProt P08631-2) Y390F”: the response (NLR normalized to HCK-N1) is 0.42 in assay [1] and 3.8 in assay [3].

Take “C1-fused HCK (hematopoietic cell kinase), wildtype (from UniProt P08631-2) Y501F”: the response (NLR normalized to HCK-N1) was found to be 3.8 in assay [1] and 7.7 in assay [3].

In the case of “N1-fused HCK (hematopoietic cell kinase), wildtype (from UniProt P08631-2) I309A; T311A”, the results for the response (NLR normalized to HCK-N1) in assay [1], in assay [2] and in assay [3] were 0.65, 1 and 0.9, respectively.

Consider “N1-fused HCK (hematopoietic cell kinase), wildtype (from UniProt P08631-2) R150A”, for which the response (NLR normalized to HCK-N1) is 8.4 in assay [1] and 7.7 in assay [3].

“N1-fused HCK (hematopoietic cell kinase), wildtype (from UniProt P08631-2) W234A” registered a response (NLR normalized to HCK-N1) in assay [3] of 0.6.

Take “N1-fused HCK (hematopoietic cell kinase), wildtype (from UniProt P08631-2) Y30F”: the response (NLR normalized to HCK-N1) was 0.9 in assay [1] and 1.2 in assay [3].

“N1-fused HCK (hematopoietic cell kinase), wildtype (from UniProt P08631-2) Y390F” came in with a response (NLR normalized to HCK-N1) in assay [1] of 0.7.

On to “N1-fused HCK (hematopoietic cell kinase), wildtype (from UniProt P08631-2) Y501F”, for which the results for the response (NLR normalized to HCK-N1) in assay [1] and in assay [3] were 7 and 6.4, respectively.

As to “N2-SKAP2 (SRC kinase adaptor phosphoprotein 2, wildtype) (from UniProt O75563) D129K”, the ratio to parent came to 2.27 in assay [4] and 1.55 in assay [5].

For the substance “N2-SKAP2 (SRC kinase adaptor phosphoprotein 2, wildtype) (from UniProt O75563) D129K; Y75F; Y237F; Y261F”, the ratio to parent in assay [4] was 1.63; in assay [5], 0.88.

Consider “N2-SKAP2 (SRC kinase adaptor phosphoprotein 2, wildtype) (from UniProt O75563) E15A; R18A”, for which the figures for the ratio to parent in assay [4] and in assay [5] were 1.19 and 1.3, respectively.

For “N2-SKAP2 (SRC kinase adaptor phosphoprotein 2, wildtype) (from UniProt O75563) E15A; R18A; V24D; F27G; V28E”, the ratio to parent in assay [4] was 0.48; in assay [5], 0.41.

In the case of “N2-SKAP2 (SRC kinase adaptor phosphoprotein 2, wildtype) (from UniProt O75563) K161E”, the figures for the ratio to parent in assay [4] and in assay [5] were 0.9 and 1.12, respectively.

Regarding “N2-SKAP2 (SRC kinase adaptor phosphoprotein 2, wildtype) (from UniProt O75563) R140M”, the ratio to parent in assay [4] is 0.79; in assay [5], 0.96.

Consider “N2-SKAP2 (SRC kinase adaptor phosphoprotein 2, wildtype) (from UniProt O75563) R140M; D129K”, for which the ratio to parent in assay [4] was determined as 0.86; in assay [5] it was 0.84.

Regarding “N2-SKAP2 (SRC kinase adaptor phosphoprotein 2, wildtype) (from UniProt O75563) V24D; F27G; V28E”, the ratio to parent was determined as 0.41 in assay [4] and 0.43 in assay [5].

For “N2-SKAP2 (SRC kinase adaptor phosphoprotein 2, wildtype) (from UniProt O75563) V24D; F27G; V28E; D129K”, the ratio to parent in assay [4] is 1.04; in assay [5] it was 0.93.

With “N2-SKAP2 (SRC kinase adaptor phosphoprotein 2, wildtype) (from UniProt O75563) W336K”, the ratio to parent in assay [4] was 1.48; in assay [5], 1.64.

For “N2-SKAP2 (SRC kinase adaptor phosphoprotein 2, wildtype) (from UniProt O75563) Y75F; Y237F; Y261F”, the values for the ratio to parent in assay [4] and in assay [5] were 1.01 and 0.76, respectively.

Take “N2-SKAP2 (SRC kinase adaptor phosphoprotein 2, wildtype) (from UniProt O75563) Y151F; Y197F”: the ratio to parent in assay [4] is 0.71; in assay [5] it was 0.8.
